Data reported in article PMC3788737, “Structural Insights into Neutrophilic Migration Revealed by the Crystal Structure of the Chemokine Receptor CXCR2 in Complex with the First PDZ Domain of NHERF1” (PLoS ONE, 2013).

Key:
[1] = molecular target: the molecule itself; experiment: crystal structure; chimeric PDZ1(11-94)-TSTTL, hanging drop, 100 mM sodium acetate pH 4.6, 2.7 M sodium chloride, 20 °C; 1.16 Å; the tail of one molecule binds the neighbouring PDZ1
[2] = molecular target: T1, NHERF1 PDZ1 domain (residues 11-94) (human, UniProt O14745 11-94); experiment: as above; conditions: both partners purified
T1 construct: Na+/H+ exchanger regulatory factor-1 (NHERF1), human, PDZ1 domain, residues 11-94; The PDZ1 part of the chimera m1, written on its own for the pair PDZ1 and CXCR2 peptide of the crystal structure; also called first PDZ domain of NHERF1; source: E. coli BL21 Codon Plus (DE3), purified, as part of the chimeric protein PDZ1-TSTTL; not shown: His6, N-terminal, cleaved; SUMO, N-terminal, cleaved
T1 sequence (looked up): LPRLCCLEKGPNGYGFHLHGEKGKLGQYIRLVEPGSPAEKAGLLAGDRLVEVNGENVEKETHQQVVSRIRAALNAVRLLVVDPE

B1: chimeric protein of the NHERF1 PDZ1 domain (residues 11-94) fused at its C-terminus to the CXCR2 residues 356-360 (TSTTL) (other, human)
chain: LPRLCCLEKGPNGYGFHLHGEKGKLGQYIRLVEPGSPAEKAGLLAGDRLVEVNGENVEKETHQQVVSRIRAALNAVRLLVVDPETSTTL
notes: Na+/H+ exchanger regulatory factor-1 (NHERF1), human, PDZ1 domain, residues 11-94; C-terminal extension that corresponds to residues 356-360 of human CXCR2; one molecule in the asymmetric unit; also called PDZ1-CXCR2; not shown: His6, N-terminal, cleaved; SUMO, N-terminal, cleaved
binding result [1]: binds

B2: CXCR2 C-terminal peptide TSTTL (residues 356-360) (peptide)
peptide: TSTTL
notes: Interleukin 8 receptor, beta (CXCR2), human, residues 356-360 (C-terminus); The CXCR2 part of the chimera m1 (joined to residue 94 of PDZ1), written on its own for the pair of the crystal structure; also called CXCR2 pentapeptide; source: E. coli BL21 Codon Plus (DE3), purified, as the C-terminal extension of the chimeric protein PDZ1-TSTTL
binding result [2]: binds
